In publication PMC6089974:

Key:
Experiment in all cases: purified protein
purified protein [1] = substrate: O=[N+]([O-])c1ccc(O[C@H]2O[C@H](CO)[C@H](O)[C@H](O)[C@H]2F)c([N+](=O)[O-])c1; conditions: 50 mM HEPES pH 7.4, 37 °C, printed Km does not agree with printed kcat and kcat/Km (possible misprint)
purified protein [2] = substrate: O=[N+]([O-])c1ccc(O[C@H]2C=C(CO)[C@H](O)[C@H](O)[C@H]2O)c([N+](=O)[O-])c1; conditions: 50 mM HEPES pH 7.4, 37 °C, covalent intermediate slowly hydrolysed, 3b equilibrates in D2O with its C-2 aryloxy isomer (~2:1)
purified protein [3] = substrate: O=[N+]([O-])c1ccc(O[C@H]2C=C(CO)[C@H](O)[C@H](O)[C@H]2F)c([N+](=O)[O-])c1; conditions: 50 mM HEPES pH 7.4, 37 °C, covalent intermediate slowly hydrolysed, apparent binding constant
purified protein [4] = substrate: O=[N+]([O-])c1ccc(O[C@H]2O[C@H](CO)[C@H](O)[C@H](O)[C@H]2O)cc1; conditions: 50 mM HEPES pH 7.4, 37 °C, acid/base mutant

Row | Protein | Km (purified protein [1]) [µM] | Km (purified protein [2]) [µM] | Km (purified protein [3]) [µM] | kcat (purified protein [3]) [s⁻¹] | kcat/Km (purified protein [3]) [M⁻¹ s⁻¹] | Km (purified protein [4]) [µM] | kcat (purified protein [4]) [s⁻¹] | kcat/Km (purified protein [4]) [M⁻¹ s⁻¹]
1 | TmGalA (Thermotoga maritima MSB8) (protein) MEIFGKTFREGRFVLKEKNFTVEFAVEKIHLGWKISGRVKGSPGRLEVLRTKAPEKVLVNNWQSWGPCRVVDAFSFKPPEIDPNWRYTASVVPDVLERNLQSDYFVAEEGKVYGFLSSKIAHPFFAVEDGELVAYLEYFDVEFDDFVPLEPLVVLEDPNTPLLLEKYAELVGMENNARVPKHTPTGWCSWYHYFLDLTWEETLKNLKLAKNFPFEVFQIDDAYEKDIGDWLVTRGDFPSVEEMAKVIAENGFIPGIWTAPFSVSETSDVFNEHPDWVVKENGEPKMAYRNWNKKIYALDLSKDEVLNWLFDLFSSLRKMGYRYFKIDFLFAGAVPGERKKNITPIQAFRKGIETIRKAVGEDSFILGCGSPLLPAVGCVDGMRIGPDTAPFWGEHIEDNGAPAARWALRNAITRYFMHDRFWLNDPDCLILREEKTDLTQKEKELYSYTCGVLDNMIIESDDLSLVRDHGKKVLKETLELLGGRPRVQNIMSEDLRYEIVSSGTLSGNVKIVVDLNSREYHLEKEGKSSLKKRVVKREDGRNFYFYEEGERE | 253 ± 8 | 1.68 ± 0.14 | 4.1 ± 0.9 | 0.000229 ± 1.1e-05 | 56 ± 13 | – | – | –
2 | TmGalA (Thermotoga maritima MSB8; D387A) (protein) MEIFGKTFREGRFVLKEKNFTVEFAVEKIHLGWKISGRVKGSPGRLEVLRTKAPEKVLVNNWQSWGPCRVVDAFSFKPPEIDPNWRYTASVVPDVLERNLQSDYFVAEEGKVYGFLSSKIAHPFFAVEDGELVAYLEYFDVEFDDFVPLEPLVVLEDPNTPLLLEKYAELVGMENNARVPKHTPTGWCSWYHYFLDLTWEETLKNLKLAKNFPFEVFQIDDAYEKDIGDWLVTRGDFPSVEEMAKVIAENGFIPGIWTAPFSVSETSDVFNEHPDWVVKENGEPKMAYRNWNKKIYALDLSKDEVLNWLFDLFSSLRKMGYRYFKIDFLFAGAVPGERKKNITPIQAFRKGIETIRKAVGEDSFILGCGSPLLPAVGCVDGMRIGPATAPFWGEHIEDNGAPAARWALRNAITRYFMHDRFWLNDPDCLILREEKTDLTQKEKELYSYTCGVLDNMIIESDDLSLVRDHGKKVLKETLELLGGRPRVQNIMSEDLRYEIVSSGTLSGNVKIVVDLNSREYHLEKEGKSSLKKRVVKREDGRNFYFYEEGERE | – | – | – | – | – | 184 ± 7 | 0.036 | 196
